“Also recorded” adds a separate entry of the source.
How the values were obtained:
[1] = molecular target: T1, VAPB-MSP(1–125) T46I mutant (Homo sapiens, UniProt O95292, T46I); test: NMR HSQC titration of 15N-VAPB-MSP(1-125) T46I mutant; format: binding
T1 construct: chemical shifts of VAPB-MSP(1–125) T46I mutant in the presence of unlabeled NS5A-D3C; His tag (N, cleaved yes); made in house; host or cells: Escherichia coli BL21 (DE3) Star
Protocol: (§1) NMR samples were prepared in 10 mM phosphate buffer in the presence of 10 mM DTT (pH 6.8). All NMR data were collected at 25°C on an 800-MHz Bruker Avance spectrometer equipped with a shielded cryoprobe as described before [70]–[73]. For HSQC characterization, samples were prepared at a protein concentration of 100 µM. For sequential assignments of NS5A-D3, triple-resonance NMR experiments including HNCACB and CBCA(CO)NH were acquired on a double-labeled sample at a protein concentration of ∼300 µM while for sequential assignments of NS5A-D3A, three-dimensional heteronuclear NMR experiments including HSQC-TOCSY and HSQC-NOESY were acquired on a ^15N-labeled sample at a protein concentration of ∼500 µM. NMR data were processed with NMRpipe and analyzed with NMRview.
(§2) For NMR HSQC characterization of the binding interactions between NS5A and VAPB fragments/domains, two-dimensional ^1H-^15N HSQC spectra of the ^15N-labeled proteins were acquired at a protein concentration of 50 µM in the absence or presence of the unlabeled binding partners at different molar ratios. By superimposing the HSQC spectra at different molar ratios, the shifted or disappeared HSQC peaks could be identified and further assigned to the corresponding residues as we previously described, [67]–[70]. The degree of perturbation was reflected by an integrated chemical shift difference (CSD) calculated by the formula ((Δ^1H)^2+(Δ^15N)^2/5)^1/2 [73]. The CSD tracings were fitted by using the one binding site model to obtain residue-specific dissociation constants (Kd); which are summarized in Table 1.

VAPB-MSP(1–125) [2] = molecular target: T2, VAPB-MSP(1–125) (Homo sapiens, UniProt O95292); test: NMR HSQC titration of 15N-VAPB-MSP(1-125) with NS5A fragments, Kd fitting; format: binding; parameters: His tag (N, cleaved yes); made in house; host or cells: Escherichia coli BL21 (DE3) Star
T2 sequence (O95292 1-125): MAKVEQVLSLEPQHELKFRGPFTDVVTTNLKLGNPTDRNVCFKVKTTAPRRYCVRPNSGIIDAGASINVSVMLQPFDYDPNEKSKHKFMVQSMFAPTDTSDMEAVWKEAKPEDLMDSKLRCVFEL
Protocol: as §1, §2

VAPB-MSP(1–125) [3] = molecular target: T2, VAPB-MSP(1–125); test: NMR competition of EphA4 LBD with D3B for VAPB-MSP(1-125); format: binding; parameters: His tag (N, cleaved yes); made in house; host or cells: Escherichia coli BL21 (DE3) Star; settings: MSP saturated by D3B at 1:4 (MSP/D3B); EphA4 at 1:10 (MSP:EphA4)
Protocol: NMR titration and docking results all reveal that the D3B peptide is able to occupy the MSP surface regions which are also critical for binding to EphA4 receptor as we previously characterized. To confirm this, we first saturated the VAPB-MSP(1–125) by D3B at a molar ratio of 1∶4 (MSP/D3B). Subsequently the EphA4 ligand-binding domain (LBD) was gradually titrated into this sample.
NMR samples were prepared in 10 mM phosphate buffer in the presence of 10 mM DTT (pH 6.8). All NMR data were collected at 25°C on an 800-MHz Bruker Avance spectrometer equipped with a shielded cryoprobe as described before [70]–[73]. For HSQC characterization, samples were prepared at a protein concentration of 100 µM. […] NMR data were processed with NMRpipe and analyzed with NMRview.
For NMR HSQC characterization of the binding interactions between NS5A and VAPB fragments/domains, two-dimensional ^1H-^15N HSQC spectra of the ^15N-labeled proteins were acquired at a protein concentration of 50 µM in the absence or presence of the unlabeled binding partners at different molar ratios. […] The degree of perturbation was reflected by an integrated chemical shift difference (CSD) calculated by the formula ((Δ^1H)^2+(Δ^15N)^2/5)^1/2 [73]. […]

VAPB-MSP(1–125) [4] = molecular target: T2, VAPB-MSP(1–125); parameters: His tag (N, cleaved yes); made in house; host or cells: Escherichia coli BL21 (DE3) Star; settings: molar ratio 1:2; ref [51]; cited from earlier work
Description: NMR titration and docking results all reveal that the D3B peptide is able to occupy the MSP surface regions which are also critical for binding to EphA4 receptor as we previously characterized. […] Subsequently the EphA4 ligand-binding domain (LBD) was gradually titrated into this sample.

VAPB-MSP T46I mutant = settings: ref [51]; cited from earlier work
VAPB-MSP(1–125) [5] = molecular target: T2, VAPB-MSP(1–125); test: NMR titration

T1 sequence (O95292 1-125 T46I): as the sequence (O95292 1-125) above, with T46I counted along it

For `CSCC[C@H](NC(=O)[C@H](CO)NC(=O)[C@H](CO)NC(=O)[C@H](Cc1ccc(O)cc1)NC(=O)[C@H](CO)NC(=O)[C@H](CCC(=O)O)NC(=O)[C@H](C)NC(=O)[C@H](CC(=O)O)NC(=O)[C@H](CO)NC(=O)CN)C(=O)N1CCC[C@H]1C(=O)N1CCC[C@H]1C(=O)N[C@@H](CC(C)C)C(=O)N[C@@H](CCC(=O)O)C(=O)NCC(=O)N[C@@H](CCC(=O)O)C(=O)N1CCC[C@H]1C(=O)NCC(=O)N[C@@H](CC(=O)O)C(=O)N1CCC[C@H]1C(=O)N[C@@H](CC(=O)O)C(=O)N[C@@H](CC(C)C)C(=O)N[C@@H](CO)C(=O)N[C@@H](CC(=O)O)C(=O)NCC(=O)N[C@@H](CO)C(=O)N[C@@H](Cc1c[nH]c2ccccc12)C(=O)N[C@@H](CO)C(=O)N[C@H](C(=O)N[C@H](C(=O)N[C@@H](CO)C(=O)N[C@@H](CCC(=O)O)C(=O)N[C@@H](CCC(=O)O)C(=O)N[C@@H](C)C(=O)N[C@@H](CO)C(=O)N[C@@H](CCC(=O)O)C(=O)N[C@@H](CC(=O)O)C(=O)N[C@H](C(=O)N[C@H](C(=O)O)C(C)C)C(C)C)C(C)C)[C@@H](C)O` [D3B], the “Interaction (Yes/No) with VAPB-MSP(1-125) T46I” value ([1]; 15N-VAPB-MSP(1-125) T46I) was “Yes/Weak”, the “HSQC perturbation of T46I mutant” value ([1]; molar ratio up to 1:6 (T46I/D3B)) was “only a small set of T46I HSQC peaks were found to shift slightly of very small amplitude” and the “Kd for T46I mutant, statement in words” value ([1]; shift tracings highly unsaturated, up to 1:6 (T46I/D3B)) was “impossible to fit out the CSD tracings to obtain Kd values”. The “Interaction (Yes/No) with VAPB-MSP(1-125)” value (VAPB-MSP(1–125) [2]; 15N-VAPB-MSP(1-125), unlabeled NS5A fragment) was “Yes”, the “MSP residues whose HSQC peaks undergo gradual but significant shifts” value (VAPB-MSP(1–125) [2]; molar ratio up to 1:4 (MSP/D3 peptide)) was “Gln6, Met89-Val90-Gln91, Asp116, Leu119 and Val122” and the “Binding affinity to VAPB-MSP, in words” value (VAPB-MSP(1–125) [2]; relative to D3 (and D3A, D3B)) was “retains almost the same binding affinity and mode as the 89-residue D3”. The “HSQC perturbation of VAPB-MSP(1-125)” value (VAPB-MSP(1–125) [2]; words, 50 µM 15N-labelled protein) was “almost the same shifting pattern and similar amplitude”.
In the case of “EphA4 LBD: 181-residue EphA4 ligand binding domain”, the “HSQC perturbation of MSP by EphA4 LBD with pre-existence of D3B” value (VAPB-MSP(1–125) [3]) is listed as “only several MSP peaks were observed to shift slightly”, the “HSQC perturbation of MSP by EphA4 LBD without D3B” value (VAPB-MSP(1–125) [4]) is listed as “started to trigger peak shift and disappearance of the MSP residues” and the “Effect of T46I mutation on binding to EphA4” value (VAPB-MSP T46I mutant) is listed as “reduced affinity to EphA4; also recorded: considerably reduces the binding affinity to EphA4”.
Compound NS5A-D3(359–447) (domain or fragment) has a Kd (VAPB-MSP(1–125) [5]) of 4.5 µM, a residue-specific Kd (Asp116) (VAPB-MSP(1–125) [5]) of 6.2 µM and a residue-specific Kd (Gln6) (VAPB-MSP(1–125) [5]) of 6.8 µM. The residue-specific Kd (Gln91) (VAPB-MSP(1–125) [5]) was 2.4 µM, the residue-specific Kd (Leu119) (VAPB-MSP(1–125) [5]) was 4.5 µM and the residue-specific Kd (Met89) (VAPB-MSP(1–125) [5]) was 5.2 µM. For the same compound, the residue-specific Kd (Val90) (VAPB-MSP(1–125) [5]) was 4.6 µM and the residue-specific Kd (Val122) (VAPB-MSP(1–125) [5]) was 1.7 µM.
NS5A-D3A(394–447) (domain or fragment) showed a Kd (VAPB-MSP(1–125) [5]) of 8 µM, a residue-specific Kd (Asp116) (VAPB-MSP(1–125) [5]) of 10.2 µM and a residue-specific Kd (Gln6) (VAPB-MSP(1–125) [5]) of 11.5 µM. It also gave a residue-specific Kd (Gln91) (VAPB-MSP(1–125) [5]) of 7.1 µM, a residue-specific Kd (Leu119) (VAPB-MSP(1–125) [5]) of 7.7 µM and a residue-specific Kd (Met89) (VAPB-MSP(1–125) [5]) of 9.9 µM. It also gave a residue-specific Kd (Val90) (VAPB-MSP(1–125) [5]) of 7.2 µM and a residue-specific Kd (Val122) (VAPB-MSP(1–125) [5]) of 2.4 µM.

Source: article PMC3374797, “Intrinsically Unstructured Domain 3 of Hepatitis C Virus NS5A Forms a “Fuzzy Complex” with VAPB-MSP Domain Which Carries ALS-Causing Mutations” (PLoS ONE, 2012)
